The values that follow come from publication PMC3280215 (Science (New York, N.y.), 2011).

Where a chain is given by its changes, count along the chain named.

Test [1] addresses gp120 (of the ELISA) (HIV-1, strain  for ELISA; …, UniProt Q75760). The experiment in a line: ELISA.
For test [2], the target named is HIV-1 YU2 Env on the cell surface (HIV-1 YU2, UniProt P35961). The experiment in a line: flow cytometry on cells.

B1: PGT 128 VH H52aA (antibody, V domains shown)
VH: QPQLQESGPTLVEASETLSLTCAVSGDSTAACNSFWGWVRQPPGKGLEWVGSLSACASYWNRGWTYHNPSLKSRLTLALDTPKNLVFLKLNSVTAADTATYYCARFGGEVLRYTDWPKPAWVDLWGRGTLVTVSS
VL: QSALTQPPSASGSPGQSITISCTGTSNNFVSWYQQHAGKAPKLVIYDVNKRPSGVPDRFSGSKSGNTASLTVSGLQTDDEAVYYCGSLVGNWDVIFGGGTKLTVL
For the molecule B1, in test [1], the binding result is “binds”.

B2: Fab PGT 127 (Fab, V domains shown)
VH: QPQLQESGPGLVEASETLSLTCTVSGDSTGRCNYFWGWVRQPPGKGLEWIGSLSHCRSYYNTDWTYHNPSLKSRLTISLDTPKNQVFLRLTSVTAADTATYYCARFGGEVLVYRDWPKPAWVDLWGRGTLVTVSS
VL: B1 VL with H36Y, A37P, D47E, N66S, T77A, A81G, G86S
As to B2, the binding result in test [2] is “binds”.

B3: Fab PGT 128 (Fab, V domains shown)
VH: B1 VH with A55H
VL: B1 VL
On to B3, for which, in test [2], the binding result is listed as “binds”.

B4: PGT 128 (format not stated for the experiment) (antibody, V domains shown)
VH: B1 VH with A55H
VL: B1 VL
With B4, the binding result in test [1] is on record as “binds”.

B5: PGT 128 IgG (antibody, V domains shown)
VH: B1 VH with A55H
VL: B1 VL
As for B5, in test [2], the binding result was “binds”.

B6: PGT 127 IgG (antibody, V domains shown)
VH: B2 VH
VL: B1 VL with H36Y, A37P, D47E, N66S, T77A, A81G, G86S
With B6, the binding result in test [2] is listed as “binds”.

B7: PGT 127 (format not stated for the experiment) (antibody, V domains shown)
VH: B2 VH
VL: B1 VL with H36Y, A37P, D47E, N66S, T77A, A81G, G86S
On to B7, for which, in test [1], the binding result is given as “binds”.
